Assay results as given in the supplement of paper PMC12338614.
± gives the uncertainty stated by the source.

B1: library; numbered along this chain (parent)
chain: MEVVDPQQLGMFTEGELMSVGMDTFIHRIDSTEVIYQPRRKRAKLIGKYLMGDLLGEGSYGKVKEVLDSETLCRRAVKILKKKKLRRIPNGEANVKKEIQLLRRLRHKNVIQLVDVLYNEEKQKMYMVMEYCVCGMQEMLDSVPEKRFPVCQAHGYFCQLIDGLEYLHSQGIVHKDIKPGNLLLTTGGTLKISDLGVAEALHPFAADDTCRTSQGSPAFQPPEIANGLDTFSGFKVDIWSAGVTLYNITTGLYPFEGDNIYKLFENIGKGSYAIPGDCGPPLSDLLKGMLEYEPAKRFSIRQIRQHSWFRKKHPPAEAPVPIPPSPDTKDRWRSMTVVPYLEDLHGADEDEDLFDIEDDIIYTQDFTVPGQVPEEEASHNGQRRGLPKAVCMNGTEAAQLSTKSRAEGRAPNPARKACSASSKIRRLSACKQQ

Variants of: B1
Experiment: STK11 functional score (HeLa growth suppression), rescaled enrichment; synonymous median = 1, nonsense median = 0 (normalised score)
Settings: with HeLa; variant type: missense
In short: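 HeLa cells carrying an AAVS1 landing pad received codon-optimised STK11 libraries made by codon randomisation (POPCode), integrated by Bxb1, with three regions each transfected three times. Integrants that were BFP-negative and mCherry-positive were sorted by FACS 4–5 days after electroporation and then grown for about two weeks. Tiled amplicons from gDNA were sequenced on NextSeq at ~2 million reads per tile. The functional score is a wild-type-corrected log ratio of post- to pre-selection counts, rescaled to the synonymous and nonsense medians, merged across codons and replicate transfections, and given a bootstrapped error.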

STK11 functional score of substitutions, site by site:
L353: S 1.6 ± 0.14 | H 1.4 ± 0.68 | Y 1.4 ± 0.4 | V 1.42 ± 0.31 | F 1.27 ± 0.6 | W 1.12 ± 0.64 | D 1.61 ± 0.16 | R 1.57 ± 0.17 | C 1.17 ± 0.72 | P 1.12 ± 0.72 | T 1.45 ± 0.16 | A 1.56 ± 0.24 | I 1.19 ± 0.15 | N 1.56 ± 0.21 | G 1.52 ± 0.15
D352: M 1.2 ± 0.33 | H 1.27 ± 0.41 | L 1.62 ± 0.15 | Q 0.828 ± 0.15 | P 1.6 ± 0.14 | E 1.15 ± 0.64 | W 0.86 ± 0.64 | T 1.57 ± 0.15 | V 1.12 ± 0.24 | C 1.34 ± 0.34 | N 1.09 ± 0.8 | A 0.984 ± 0.58 | K 1.55 ± 0.13 | R 1.61 ± 0.15 | S 1.57 ± 0.14 | Y 0.953 ± 0.14
D350: R 1.61 ± 0.17 | N 1.07 ± 0.72 | L 1.6 ± 0.16 | H 1.27 ± 0.29 | S 0.53 ± 0.49 | C 1.51 ± 0.31 | Y 1.45 ± 0.34 | A 0.867 ± 0.29 | G 1.29 ± 0.28 | Q 1.49 ± 0.19 | P 1.48 ± 0.16 | F 0.0925 ± 0.3 | T 1.47 ± 0.14 | I 1.25 ± 0.2 | W 1.6 ± 0.19 | M 1.65 ± 0.15 | E 1.25 ± 0.56 | V 1.19 ± 0.34
I356: W 1.66 ± 0.25 | Y 1.12 ± 0.18 | M 1.21 ± 0.53 | R 1.19 ± 0.38 | D 1.27 ± 0.43 | F 1.15 ± 0.18 | G 1.45 ± 0.37 | L 1.15 ± 0.38 | A 1.5 ± 0.25 | N 1.45 ± 0.62 | E 1.62 ± 0.14 | Q 1.58 ± 0.21 | V 1.46 ± 0.28 | P 1.6 ± 0.26 | H 1.51 ± 0.22 | T 1.58 ± 0.43 | S 0.889 ± 0.32
E349: L 1.47 ± 0.14 | P 1.41 ± 0.14 | Y 0.952 ± 0.56 | Q 1.16 ± 0.57 | D 1.35 ± 0.44 | A 1.5 ± 0.13 | I 1.05 ± 0.55 | F 0.989 ± 0.64 | N 1.48 ± 0.19 | G 0.983 ± 0.3 | R 1.37 ± 0.15 | M 1.33 ± 0.32 | V 1.16 ± 0.37 | C 1.1 ± 0.42 | T 1.51 ± 0.13 | W 1.14 ± 0.5 | S 1.38 ± 0.28
E351: I 1.27 ± 0.15 | D 0.951 ± 0.63 | G 1.33 ± 0.12 | H 0.374 ± 0.082 | Y 1.23 ± 0.39 | R 1.26 ± 0.16 | M 0.992 ± 0.19 | V 1.36 ± 0.18 | W 1.48 ± 0.16 | Q 1.28 ± 0.6 | L 1.43 ± 0.25 | T 1.52 ± 0.18 | C 1.06 ± 0.11 | S 1.4 ± 0.14 | F 1.19 ± 0.47 | P 1.55 ± 0.14
D348: M 0.896 ± 0.66 | T 1.57 ± 0.27 | Y 0.868 ± 0.53 | R 1.2 ± 0.26 | Q 1.54 ± 0.22 | V 0.78 ± 0.44 | N 0.723 ± 0.63 | L 1.3 ± 0.15 | W 1.58 ± 0.25 | S 1.59 ± 0.16 | P 1.59 ± 0.14
D355: R 1.43 ± 0.22 | W 1.57 ± 0.17 | C 1.31 ± 0.13 | V 1.14 ± 0.18 | A 0.938 ± 0.15 | I 1.18 ± 0.42 | Q 1.28 ± 0.16 | P 1.53 ± 0.2 | S 1.48 ± 0.18 | H 1.11 ± 0.65 | E 1.02 ± 0.47 | G 1.63 ± 0.25 | L 1.58 ± 0.14
D358: G 1.08 ± 0.14 | L 1.56 ± 0.17 | C 1.53 ± 0.14 | E 0.693 ± 0.27 | A 1.27 ± 0.15 | I 1.15 ± 0.46 | H 0.325 ± 0.53 | N 0.776 ± 0.53 | P 0.725 ± 0.8
F354: C 0.742 ± 0.34 | G 1.09 ± 0.23 | R 1.53 ± 0.16 | E 1.45 ± 0.27 | K 1.57 ± 0.22 | V 1.3 ± 0.21 | N 1.6 ± 0.19 | M 1.51 ± 0.23 | W 0.138 ± 0.13 | T 0.37 ± 0.26 | S 1.34 ± 0.26 | I 1.32 ± 0.16 | P 1.42 ± 0.14 | L 1.12 ± 0.22 | Q 1.61 ± 0.14 | Y 1.31 ± 0.15 | H 1.34 ± 0.28 | A 1.54 ± 0.21
E357: I 1.56 ± 0.26 | H 1.6 ± 0.17 | Q 1.13 ± 0.47 | T 1.56 ± 0.17 | V 1.33 ± 0.25 | R 1.36 ± 0.17 | F 0.965 ± 0.41 | C 1.36 ± 0.37 | S 1.52 ± 0.15 | A 1.12 ± 0.49 | D 0.56 ± 0.73 | W 0.957 ± 0.15 | G 1.47 ± 0.23 | M 1.52 ± 0.29 | Y 1.39 ± 0.26 | P 1.58 ± 0.14 | L 1.54 ± 0.31
